Results taken from patent publication US20240368269A1 (Memorial Sloan Kettering, published 2024).

Experiments:
[1] = target: T1, DLL3 (target in the Fab-Zap internalization assay) (UniProt Q9NYJ7 27-618, limits assumed); assay: cell-based or functional assay
T1 sequence (looked up): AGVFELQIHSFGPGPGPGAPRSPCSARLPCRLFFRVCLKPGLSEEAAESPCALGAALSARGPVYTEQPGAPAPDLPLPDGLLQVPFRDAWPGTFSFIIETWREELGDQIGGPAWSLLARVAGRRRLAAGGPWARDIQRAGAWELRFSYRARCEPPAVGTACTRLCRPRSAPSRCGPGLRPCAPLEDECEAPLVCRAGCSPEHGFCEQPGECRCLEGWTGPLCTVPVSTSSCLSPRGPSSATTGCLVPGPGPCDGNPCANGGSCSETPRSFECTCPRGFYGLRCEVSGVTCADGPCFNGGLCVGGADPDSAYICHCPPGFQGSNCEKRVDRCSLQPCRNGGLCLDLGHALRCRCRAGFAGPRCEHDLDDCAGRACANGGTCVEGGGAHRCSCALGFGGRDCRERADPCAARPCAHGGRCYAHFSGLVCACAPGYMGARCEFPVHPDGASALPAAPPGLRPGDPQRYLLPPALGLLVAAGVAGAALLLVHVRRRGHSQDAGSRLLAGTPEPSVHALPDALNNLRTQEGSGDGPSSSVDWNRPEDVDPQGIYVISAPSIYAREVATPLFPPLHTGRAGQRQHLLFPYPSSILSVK

hDLL3 = target: T2, hDLL3 (human, UniProt Q9NYJ7 27-492, limits assumed); assay: Affinity hDLL3 of Table 30; method not given
T2 construct: also called human DLL3
T2 sequence: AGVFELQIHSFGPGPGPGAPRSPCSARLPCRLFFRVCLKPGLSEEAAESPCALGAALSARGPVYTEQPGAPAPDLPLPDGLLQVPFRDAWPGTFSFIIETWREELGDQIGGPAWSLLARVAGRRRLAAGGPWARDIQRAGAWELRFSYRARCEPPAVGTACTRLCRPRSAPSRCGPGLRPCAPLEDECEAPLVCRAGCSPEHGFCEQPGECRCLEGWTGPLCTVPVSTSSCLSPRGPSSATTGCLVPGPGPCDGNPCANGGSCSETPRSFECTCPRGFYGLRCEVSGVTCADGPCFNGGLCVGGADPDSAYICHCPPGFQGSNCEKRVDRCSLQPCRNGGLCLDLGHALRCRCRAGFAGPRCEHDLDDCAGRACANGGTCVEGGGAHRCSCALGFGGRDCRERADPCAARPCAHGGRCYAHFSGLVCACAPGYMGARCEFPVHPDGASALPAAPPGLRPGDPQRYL

B1: B2 (antibody, V domains shown)
VH: QVQLVQSGAEVKKPGASVKVSCKASGYTFTSYYMHWVRQAPGQGLEWMGIINPSGGSTSYAQKFRGRVTMTRDTSTSTVYMELSSLRSEDTAVYYCARGDYDILTDYYYNMDVWGQGTTVTVSS
VL: DIQMTQSPSAMSASVGDRVTITCRASQGISNYLAWFQQKPGKVPKRLIYAASSLQSGVPSRFSGSGSGTEFTLTISSLQPEDFATYYCLQHNSYPYTFGQGTKLEIK
notes: Purified hybridoma monoclonal antibody (Ablexis AlivaMab Kappa mice); format there not clear; also called 3-B2-A
B1 was tested, and the “Percent Max Killing (Fab-Zap internalization assay, 10 ug/ml)” value [1] was 71.4% and the Kd (hDLL3) was 3.55 nM.
